Experimental findings from patent publication US20250026816A1, “Antibodies for Use as Therapeutics Against Bacterial Infections” (priority 2021, published 2025) are described below.

In experiment [1] the target is T1, Oxa-23 carbapenemase enzyme (Acinetobacter baumannii, UniProt Q9L4P2 18-273).
T1 construct: No signal peptide cleavage site is stated; also called class D beta-lactamase; 30kD protein
The experiment can be described thus: binding to Oxa-23 on A. baumannii OMVs; method not given at this place.

Experiment [2] has as its target T2, Oxa-23 (Acinetobacter baumannii, UniProt Q9L4P2).
T2 construct: endogenous in cells; host or cells: OMVs of GC2 A. baumannii clinical strains
The experiment can be described thus: Specific binding to Oxa-23 on OMVs (summary statement). The settings on record: on outer membrane vesicles (OMVs) of Acinetobacter baumannii bacteria.

Experiment [3] addresses T1, Oxa-23 carbapenemase enzyme. Put plainly: serological expression cloning: mAb screened on plaques of a phage expression library of A. baumannii genomic DNA (BAL 084, BAL 276), bound phage sequenced.
The next experiment has as its system OC1 LOS. The experiment can be described thus: Western blot of extracted LOS. Format: binding, Acinetobacter baumannii. An excerpt:
(§1) Focusing on the cross-reactive mAbs identified, we used a phage expression library incorporating shotgun A. baumannii genomic DNA from strains BAL 084 and BAL 276. Because the mAbs could potentially bind a polypeptide epitope, we screened mAbs for reactivity with phage plaques from the phage expression library. Using this screening mechanism, we were able to identify individual phage binding to Abs 1348, 1349. By sequencing the phage, we were able to elucidate 1348 and 1349 bound Oxa-23, a class D […] that is a major group of enzymes involved in resistance to carbapenem antibiotics. That we have identified mAbs binding to Oxa-23 in a target agnostic screen is highly significant. […] Secondly, since Oxa-23 is a functional enzyme that inactivates carbapenem and carbapenem resistance is a major clinical issue for the treatment of nosocomial A. baumannii infection, it may be possible to block enzymatic function of Oxa-23 by mAbs and render A. baumannii susceptible to carbapenems. […] The LOS types were determined for a selection of isolates by OCL specific PCR. […] Next, LOS was extracted (with extensive proteinase K treatment to remove any proteins) and analyzed by Western blot using mAb 1042). […] Capsule antigens were extracted from selected strains bearing KL49 and analyzed by subsequent SDS-PAGE and Western blot analysis using the mAb 1416.

A further experiment concerns E. coli NCTC 13441 LPS. Put plainly: Western blot of extracted LPS (control). It counts as binding. The settings on record: E. coli NCTC13441 (025b).
From the text: as §1
In general terms: In western blotting, separated proteins are transferred to a membrane and probed.

The target of experiment [4] is T2, Oxa-23. Put plainly: Phage expression library screen (serological expression cloning) for antigen identification. It counts as binding. The note with it: phage expression library of genomic DNA from strains BAL 084 and BAL 276. An excerpt:
The particular binding antigen (e.g. Oxa-23, OC1 LOS, or KL49) of an antibody may be determined using a phage expression library e.g. as described in Example 5. For example, shotgun A. Baumannii genomic DNA is incorporated into a phage expression library. The antibody is then screened for reactivity with phage plaques from the expression library and the individual phage binding to the antibody is identified. The identified phage is sequenced, and the sequencing information used to elucidate the binding antigen of the antibody. A suitable phage method for antigen identification will be known to a person skilled in the art. For example, a suitable phage method is described in Lodes M J, Dillon D C, Houghton R L, Skeiky Y A. Expression cloning. Methods Mol Med. 2004; 94:91-106. doi: 10.1385/1-59259-679-7:91. PMID: 14959824, the contents of which are incorporated by reference.
Focusing on the cross-reactive mAbs identified, we used a phage expression library incorporating shotgun A. baumannii genomic DNA from strains BAL 084 and BAL 276. […] The LOS types were determined for a selection of isolates by OCL specific PCR. […] Next, LOS was extracted (with extensive proteinase K treatment to remove any proteins) and analyzed by Western blot using mAb 1042). […] Capsule antigens were extracted from selected strains bearing KL49 and analyzed by subsequent SDS-PAGE and Western blot analysis using the mAb 1416.

T2 sequence (Q9L4P2 18-273): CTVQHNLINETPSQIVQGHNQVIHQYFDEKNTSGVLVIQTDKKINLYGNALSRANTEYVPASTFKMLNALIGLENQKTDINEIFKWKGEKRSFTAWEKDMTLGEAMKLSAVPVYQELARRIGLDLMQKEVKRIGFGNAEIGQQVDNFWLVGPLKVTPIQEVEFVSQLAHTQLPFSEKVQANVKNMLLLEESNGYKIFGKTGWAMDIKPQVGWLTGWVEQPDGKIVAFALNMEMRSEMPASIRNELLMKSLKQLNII
T1 sequence (Q9L4P2 18-273 limits assumed): as the sequence (Q9L4P2 18-273) above

B1: Antibody 1550 (antibody, V domains shown)
VH: QVQLVESGGGVVQPGRSLRLSCAASGFTFSSYGMHWVRQAPGKGLEWVAVISYDGSNKYYADSVKGRFTISRDNSKNTLYLQMNSLRAEDTAVYYCAKESLTMVRGEGFDPWGQGTLVTVSS
VL: DIQMTQSPSSVSASVGDRVTITCRASQGISSWLAWYQQKPGKAPKLLIYAASSLQSGVPSRFSGSGSGTDFTLTISSLQPEDFATYYCQQANSFPCSFGQGTKLEIK
notes: also called PPB-1550
B1: in experiment [1], the binding result is given as “binds”. In addition, the “specific binding to Oxa-23” value in the experiment with Oxa-23 [2] is given as “specifically bind to Oxa-23”.

B2: Antibody 1349 (antibody, V domains shown)
VH: QITLKESGPTLVKPTQTLTLTCTFSGFSLSTSGVGVGWIRQPPGKALEWLALIYWDDDKRYSPSLKSRLTITKDTSKNQVVLTMTNMDPVDTATYYCAHSYYYDSSDSYYFDYWGQGTLVTVSS
VL: DIQLTQSPSFLSASVGDRVTITCWASQGISSRLAWYQQKPGKAPKLLIYAASTLQSGVPSRFSGSGSGTEFTLTISSLQPEDFGNYYCQQFNTYPFTFGPGTKVDIKR
notes: It was expressed as human IgG1; also called PPB-1349
Turning to B2, the binding result in experiment [3] is “binds”.

B3: Antibody 1042: anti-OC1 LOS antibody; VH SEQ ID No: 188, VL SEQ ID No: 191 (antibody, V domains shown)
VH: QITLKESGPTLVKPTQTLTLTCTFSGFSLSTSGVGVGWIRQPPGKALEWLAVIYWDDDKRYSPSLKSRVTITKDTSKNQVVLTMTNMDPVDTATYYCAHSYYHDSSDSYYFDYWAQGTLVTVSS
VL: DIQLTQSPSFLSASVGDRVTITCWASQGISSRLAWYQQKPGKAPKLLIYAASTLQSGVPSRFSGSGSGTEFTLTISSLQPEDFATYYCQQLTSYPFTFGPGTKVDIK
As to B3, the “binding to extracted LOS” value in the experiment on OC1 LOS (ATCC 17978 (OCL2)) was “no binding”. Further, the “binding to 10kD target in extracted LOS” value with OC1 LOS (OC1 isolates A. baumannii BAL_191, BAL_339, BAL_372) was “Specific binding”. Also, the “binding to extracted LPS” value in the experiment with E. coli NCTC 13441 LPS is reported as “no binding”.

B4: Antibody 1548 (antibody, V domains shown)
VH: QVQLVESGGGVVQPGRSLRLSCAASGFTFSSYAMHWVRQAPGKGLEWVAVISYDGSNKYYADSVKGRFTISRDNSKNTLYLQMNSLRAEDTAVYYCAGYGGNSLDPWGQGTLVTVSS
VL: AIQMTQSPSSLSASVGDRVTITCRASQGIRNDLVWYQQKPGKAPKVLIYDASSLQSGVPSRFSGSGFGTDFTLTISSLQPEDFATYYCLQDYNYPCSFGQGTKLEIK
notes: also called PPB-1548
Take B4: the binding result in experiment [1] is “binds”. Also, the “specific binding to Oxa-23” value with Oxa-23 [2] is “specifically bind to Oxa-23”.

B5: Antibody 1348 (antibody, V domains shown)
VH: EVQLVESGGGFVQPGRSLRLSCIASGFTFDDYAMHWVRQTPGKGLEWVSVISWNSVSIGYADSVKGRFTISRDNAKNSLYLQMNSLRAEDTALYYCARYSSGPDAFDIWGQGTMVTVSS
VL: DIQMTQSPSSLSASVGDRVTITCRASQDIRNDLGWYQQKPGKAPKRLIYAASSLQSGVPSRFSGSGFGTEFTLTISSLQPEDFATYYCLQHYTYPPTFGGGTRVEIK
notes: Only variable domains are tied to 1348; also called PPB-1348
As to B5, in experiment [3], the binding result was “binds”.

B6: Antibody 1540 (antibody, V domains shown)
VH: EVQLVESGGGFVQPGRSLRLSCIASGFTFDDYAMHWVRQTPGKGLEWVSVISWNSVSIGYADSVKGRFTISRDNAKNSLYLQMNSLRAEDTALYYCARYSSGPDAFDIWGQGTMVTVSS
VL: DIQMTQSPSSLSASVGDRVTITCRASQDIRNDLGWYQQKPGKAPKRLIYAASSLQSGVPSRFSGSGFGTEFTLTISSLQPEDFATYYCLQHYTYPPTFGGGTRVEIK
notes: also called PPB-1540
With B6, in experiment [1], the binding result is given as “binds”.

B7: 1348 (antibody, V domains shown)
VH: EVQLVESGGGFVQPGRSLRLSCIASGFTFDDYAMHWVRQTPGKGLEWVSVISWNSVSIGYADSVKGRFTISRDNAKNSLYLQMNSLRAEDTALYYCARYSSGPDAFDIWGQGTMVTVSS
VL: DIQMTQSPSSLSASVGDRVTITCRASQDIRNDLGWYQQKPGKAPKRLIYAASSLQSGVPSRFSGSGFGTEFTLTISSLQPEDFATYYCLQHYTYPPTFGGGTRVEIK
B7: in the experiment with Oxa-23 [2], the “specific binding to Oxa-23” value was “specifically bind to Oxa-23”. The “antigen bound, elucidated by sequencing the binding phage” value with Oxa-23 [4] is reported as “bound Oxa-23”.

B8: 1540 (antibody, V domains shown)
VH: EVQLVESGGGFVQPGRSLRLSCIASGFTFDDYAMHWVRQTPGKGLEWVSVISWNSVSIGYADSVKGRFTISRDNAKNSLYLQMNSLRAEDTALYYCARYSSGPDAFDIWGQGTMVTVSS
VL: DIQMTQSPSSLSASVGDRVTITCRASQDIRNDLGWYQQKPGKAPKRLIYAASSLQSGVPSRFSGSGFGTEFTLTISSLQPEDFATYYCLQHYTYPPTFGGGTRVEIK
Take B8: the “specific binding to Oxa-23” value with Oxa-23 [2] is listed as “specifically bind to Oxa-23”.
